Laboratory results from US20250000946A1 (WUXI BIOLOGICS IRELAND, published 2025).

T1: Human IL-2Rβ/γ (intermediate affinity IL-2 receptor) (human, UniProt P14784 27-551; P31785 23-369)
T1 construct: whole, on cells; also called IL-2Rβ/γc; IL-2Rβ (CD122) and γ (CD132)
T1 sequence (looked up) 1: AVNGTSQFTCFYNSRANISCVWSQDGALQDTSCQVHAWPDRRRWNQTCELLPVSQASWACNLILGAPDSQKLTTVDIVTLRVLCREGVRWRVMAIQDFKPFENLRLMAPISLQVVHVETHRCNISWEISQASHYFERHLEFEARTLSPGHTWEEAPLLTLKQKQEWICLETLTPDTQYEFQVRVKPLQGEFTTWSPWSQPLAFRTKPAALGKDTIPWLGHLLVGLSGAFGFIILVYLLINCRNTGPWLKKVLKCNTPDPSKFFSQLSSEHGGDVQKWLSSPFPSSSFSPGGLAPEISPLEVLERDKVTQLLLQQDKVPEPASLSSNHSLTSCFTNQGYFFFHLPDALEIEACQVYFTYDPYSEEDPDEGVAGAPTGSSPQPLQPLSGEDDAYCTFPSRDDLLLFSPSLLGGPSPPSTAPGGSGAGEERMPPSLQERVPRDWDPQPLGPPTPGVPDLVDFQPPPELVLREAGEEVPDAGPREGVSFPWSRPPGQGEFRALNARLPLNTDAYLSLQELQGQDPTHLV
T1 sequence (looked up) 2: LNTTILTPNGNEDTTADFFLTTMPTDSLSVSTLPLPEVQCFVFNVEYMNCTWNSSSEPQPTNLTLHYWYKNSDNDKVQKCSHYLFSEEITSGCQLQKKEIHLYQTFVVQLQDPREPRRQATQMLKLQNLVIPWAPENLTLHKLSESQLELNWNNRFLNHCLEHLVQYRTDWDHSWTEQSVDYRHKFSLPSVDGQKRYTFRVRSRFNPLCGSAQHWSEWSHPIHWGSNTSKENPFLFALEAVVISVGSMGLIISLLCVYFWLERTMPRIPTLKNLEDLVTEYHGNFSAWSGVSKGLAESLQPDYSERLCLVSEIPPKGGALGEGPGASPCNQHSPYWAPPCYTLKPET

T2: Human IL-2Rα/β/γ complex (high affinity IL-2 receptor) (human, UniProt P01589 22-272; P14784 27-551; P31785 23-369)
T2 construct: whole, on cells
T2 sequence (looked up) 1: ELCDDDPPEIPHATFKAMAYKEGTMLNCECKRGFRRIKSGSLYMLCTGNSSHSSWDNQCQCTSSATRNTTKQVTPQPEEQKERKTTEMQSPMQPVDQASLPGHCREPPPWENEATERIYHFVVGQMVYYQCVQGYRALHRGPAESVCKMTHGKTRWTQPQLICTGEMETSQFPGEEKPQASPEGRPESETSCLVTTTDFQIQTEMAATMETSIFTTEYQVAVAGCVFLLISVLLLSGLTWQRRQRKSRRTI
T2 sequence (looked up) 2: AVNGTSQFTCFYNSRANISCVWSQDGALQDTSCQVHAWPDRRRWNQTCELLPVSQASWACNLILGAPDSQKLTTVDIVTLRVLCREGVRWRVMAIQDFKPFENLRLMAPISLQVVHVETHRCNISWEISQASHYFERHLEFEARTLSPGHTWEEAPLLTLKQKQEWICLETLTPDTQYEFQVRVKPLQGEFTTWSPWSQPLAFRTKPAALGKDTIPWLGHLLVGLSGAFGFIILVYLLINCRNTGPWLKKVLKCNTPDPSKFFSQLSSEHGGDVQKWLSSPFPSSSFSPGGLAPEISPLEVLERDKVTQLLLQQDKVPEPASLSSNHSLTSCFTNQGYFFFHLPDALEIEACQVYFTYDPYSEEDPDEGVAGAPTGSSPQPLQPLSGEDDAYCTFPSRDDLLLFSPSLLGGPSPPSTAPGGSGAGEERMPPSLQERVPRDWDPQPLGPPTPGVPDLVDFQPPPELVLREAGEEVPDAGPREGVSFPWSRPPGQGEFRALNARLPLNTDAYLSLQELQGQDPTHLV
T2 sequence (looked up) 3: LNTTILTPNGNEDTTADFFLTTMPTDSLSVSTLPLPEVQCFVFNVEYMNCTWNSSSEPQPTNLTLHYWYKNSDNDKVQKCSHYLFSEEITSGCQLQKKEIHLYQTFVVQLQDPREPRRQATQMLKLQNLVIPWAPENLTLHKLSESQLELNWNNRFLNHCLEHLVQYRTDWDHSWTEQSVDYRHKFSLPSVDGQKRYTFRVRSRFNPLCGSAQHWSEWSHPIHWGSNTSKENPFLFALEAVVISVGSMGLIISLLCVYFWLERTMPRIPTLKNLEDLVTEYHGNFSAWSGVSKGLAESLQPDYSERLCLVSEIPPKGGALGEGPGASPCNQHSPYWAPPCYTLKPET


Columns and labels:
[1] = biological target: T1, Human IL-2Rβ/γ (intermediate affinity …); assay: FACS, HH cells; EC50 fold vs T2U0.E44-1
Protocol: (§1) Human cutaneous T cell lymphoma HH cells, malignant non-Hodgkin's lymphoma NK92 cells and cutaneous T cell lymphoma MJ20 cells were used for binding assay. They both constitutively express IL-2Rβ (CD122) and […] (CD132), and NK92 and MJ20 also expresses IL-2Rα (CD25). HH, NK92 and MJ20 cells were cultured following ATCC guidance, then transferred to a 96-plate for binding analysis. Cells were incubated with IL-2/Fc fusion proteins at the indicated concentrations for 30 min at 4° C. to avoid internalization. Binding was detected by 2nd antibody of PE-anti-human Fc at 4° C. for another 30 min. The median fluorescence intensity (MFI) on HH and NK92 cells was measured using FACS.

[2] = biological target: T1, Human IL-2Rβ/γ (intermediate affinity …); assay: FACS, HH cells
Protocol: as §1

[3] = biological target: T1, Human IL-2Rβ/γ (intermediate affinity …); assay: cell-based or functional assay
[4] = biological target: T2, Human IL-2Rα/β/γ complex (high affinity …); assay: FACS, NK92 cells; EC50 fold vs T2U0.E44-1
Protocol: as §1

[5] = biological target: T1, Human IL-2Rβ/γ (intermediate affinity …); assay: cell-based or functional assay; remark: listed apart in the source
[6] = biological target: T2, Human IL-2Rα/β/γ complex (high affinity …); assay: cell-based or functional assay
[7] = biological target: T2, Human IL-2Rα/β/γ complex (high affinity …); assay: FACS, NK92 cells
Protocol: as §1

| Affinity reduction [1] [fold] | EC50 [2] [nM] | Human CD8+ T Potency EC50 (STAT5 phosphorylation) [3] [nM] | Human CD8+ T Potency reduction [3] [fold] | Affinity reduction [4] [fold] | Potency in human CD8+ T EC50 [5] [nM] | Potency reduction (CD8+ T) [5] [fold] | Potency in human Treg EC50 [6] [nM] | Potency reduction (Treg) [6] [fold] | EC50 [7] [nM] | Binder |
| --- | --- | --- | --- | --- | --- | --- | --- | --- | --- | --- |
| 15.8 | 800 | 365 | 100 |  |  |  |  |  |  | W3XX115-T2U0.E44-31.uIgG4V322 (Fc fusion) APTSSSTKKTQLQLEHLLLDLQMILNGINNYKNPKLTRMLTVKFYMPKKATELKHLQCLEEELKPLEEVLNLAQSKNFHLRPRDLISNINVIVLELKGSETTFMCEYADETATIVEFLNRWITFCQSILESKYGPPCPPCPAPEAAGGPSVFLFPPKPKDTLMISRTPEVTCVVVDVSQEDPEVQFNWYVDGVEVHNAKTKPREEQFNSTYRVVSVLTVLHQDWLNGKEYKCKVSNKGLPSSIEKTISKAKGQPREPQVYTLPPCQEEMTKNQVSLWCLVKGFYPSDIAVEWESNGQPENNYKTTPPVLDSDGSFFLYSRLTVDKSRWQEGNVFSCSVMHEALHNHYTQKSLSLSLG heavy: EIQLQQSGPELVKPGASVKVSCKASGYSFTDYNMYWVKQSHGESLEWIGYIDPYNGGTRYNQKFKGKATLTVDKSSSTAFMHLNSLTSEDSAVYYCARNGHWDGAWFAYWGQGTLVTVSAASTKGPSVFPLAPCSRSTSESTAALGCLVKDYFPEPVTVSWNSGALTSGVHTFPAVLQSSGLYSLSSVVTVPSSSLGTKTYTCNVDHKPSNTKVDKRVESKYGPPCPPCPAPEAAGGPSVFLFPPKPKDTLMISRTPEVTCVVVDVSQEDPEVQFNWYVDGVEVHNAKTKPREEQFNSTYRVVSVLTVLHQDWLNGKEYKCKVSNKGLPSSIEKTISKAKGQPREPQVCTLPPSQEEMTKNQVSLSCAVKGFYPSDIAVEWESNGQPENNYKTTPPVLDSDGSFFLVSRLTVDKSRWQEGNVFSCSVMHEALHNHYTQKSLSLSLG light: DIQMNQSPSSLSASLGDTITITCHASQNINVWLSWYQQKPGNIPKLLIYKASNLHTGVPSRFSGSRSGTGFTLTISSLQPEDIATYYCHQGQSYPFTFGSGTKLEIKRTVAAPSVFIFPPSDEQLKSGTASVVCLLNNFYPREAKVQWKVDNALQSGNSQESVTEQDSKDSTYSLSSTLTLSKADYEKHKVYACEVTHQGLSSPVTKSFNRGEC |
|  |  |  |  | 94 | 5110 | 535 | 36.4 | 1400 | ~515 | W3XX115-T2U0.E44-7.uIgG4V1 (Fc fusion, IL-2 with C-terminal 5 aa (ISTLT) deleted; E44 format, IgG4) APTSSSTKKTQLQLEHLLLDLQMILNGINNYKNPKLTRMLTFKFYMPKKATELKHLQCLEEELKPLEEVLNLAQSKNFHLRPRDLISNINVIVLELKGSETTFMCEYADETATIVEFLNRWITFCQSIESKYGPPCPPCPAPEFLGGPSVFLFPPKPKDTLMISRTPEVTCVVVDVSQEDPEVQFNWYVDGVEVHNAKTKPREEQFNSTYRVVSVLTVLHQDWLNGKEYKCKVSNKGLPSSIEKTISKAKGQPREPQVYTLPPCQEEMTKNQVSLWCLVKGFYPSDIAVEWESNGQPENNYKTTPPVLDSDGSFFLYSRLTVDKSRWQEGNVFSCSVMHEALHNHYTQKSLSLSLG heavy: EIQLQQSGPELVKPGASVKVSCKASGYSFTDYNMYWVKQSHGESLEWIGYIDPYNGGTRYNQKFKGKATLTVDKSSSTAFMHLNSLTSEDSAVYYCARNGHWDGAWFAYWGQGTLVTVSAASTKGPSVFPLAPCSRSTSESTAALGCLVKDYFPEPVTVSWNSGALTSGVHTFPAVLQSSGLYSLSSVVTVPSSSLGTKTYTCNVDHKPSNTKVDKRVESKYGPPCPPCPAPEFLGGPSVFLFPPKPKDTLMISRTPEVTCVVVDVSQEDPEVQFNWYVDGVEVHNAKTKPREEQFNSTYRVVSVLTVLHQDWLNGKEYKCKVSNKGLPSSIEKTISKAKGQPREPQVCTLPPSQEEMTKNQVSLSCAVKGFYPSDIAVEWESNGQPENNYKTTPPVLDSDGSFFLVSRLTVDKSRWQEGNVFSCSVMHEALHNHYTQKSLSLSLG light: DIQMNQSPSSLSASLGDTITITCHASQNINVWLSWYQQKPGNIPKLLIYKASNLHTGVPSRFSGSRSGTGFTLTISSLQPEDIATYYCHQGQSYPFTFGSGTKLEIKRTVAAPSVFIFPPSDEQLKSGTASVVCLLNNFYPREAKVQWKVDNALQSGNSQESVTEQDSKDSTYSLSSTLTLSKADYEKHKVYACEVTHQGLSSPVTKSFNRGEC |
| 17.9 | 904 | 379 | 104 |  |  |  |  |  |  | W3XX115-T2U0.E44-32.uIgG4V322 (Fc fusion) APTSSSTKKTQLQLEHLLLDLQMILNGINNYKNPKLTRMLTIKFYMPKKATELKHLQCLEEELKPLEEVLNLAQSKNFHLRPRDLISNINVIVLELKGSETTFMCEYADETATIVEFLNRWITFCQSILESKYGPPCPPCPAPEAAGGPSVFLFPPKPKDTLMISRTPEVTCVVVDVSQEDPEVQFNWYVDGVEVHNAKTKPREEQFNSTYRVVSVLTVLHQDWLNGKEYKCKVSNKGLPSSIEKTISKAKGQPREPQVYTLPPCQEEMTKNQVSLWCLVKGFYPSDIAVEWESNGQPENNYKTTPPVLDSDGSFFLYSRLTVDKSRWQEGNVFSCSVMHEALHNHYTQKSLSLSLG heavy: EIQLQQSGPELVKPGASVKVSCKASGYSFTDYNMYWVKQSHGESLEWIGYIDPYNGGTRYNQKFKGKATLTVDKSSSTAFMHLNSLTSEDSAVYYCARNGHWDGAWFAYWGQGTLVTVSAASTKGPSVFPLAPCSRSTSESTAALGCLVKDYFPEPVTVSWNSGALTSGVHTFPAVLQSSGLYSLSSVVTVPSSSLGTKTYTCNVDHKPSNTKVDKRVESKYGPPCPPCPAPEAAGGPSVFLFPPKPKDTLMISRTPEVTCVVVDVSQEDPEVQFNWYVDGVEVHNAKTKPREEQFNSTYRVVSVLTVLHQDWLNGKEYKCKVSNKGLPSSIEKTISKAKGQPREPQVCTLPPSQEEMTKNQVSLSCAVKGFYPSDIAVEWESNGQPENNYKTTPPVLDSDGSFFLVSRLTVDKSRWQEGNVFSCSVMHEALHNHYTQKSLSLSLG light: DIQMNQSPSSLSASLGDTITITCHASQNINVWLSWYQQKPGNIPKLLIYKASNLHTGVPSRFSGSRSGTGFTLTISSLQPEDIATYYCHQGQSYPFTFGSGTKLEIKRTVAAPSVFIFPPSDEQLKSGTASVVCLLNNFYPREAKVQWKVDNALQSGNSQESVTEQDSKDSTYSLSSTLTLSKADYEKHKVYACEVTHQGLSSPVTKSFNRGEC |
